{
  "source": "paper PMC10434240",
  "about": "“An Atypical F-Actin Capping Protein Modulates Cytoskeleton Behaviors Crucial for Trichomonas vaginalis Colonization” (Microbiology Spectrum, 2023)",
  "binders": {"B1": {"name": "α-actin (endogenous T. vaginalis) (natural protein)", "chain": "not shown", "notes": "T. vaginalis α-actin detected by anti-α-actin antibody; other actin genes of the parasite may be detected too; also called F-actin; TvActin; source: endogenous, T. vaginalis TH17 lysate"}, "B2": {"name": "Alexa Fluor 555-His-TvFACPα (natural protein)", "chain": "MSESENIKIIKTFLANAPPGEYEQCTAALRSIVNDEDLINRARSETLKTWAEEECIVVDVEDHKVIICKEACQRDGIYVDPVTSSLITYDFESRIATPIGDQANMSDFAKELQEELTAYAKNAYKENAAAGVYDTNNGIVIVLRGSSISLKNFRTGKTVAKYTLSKSGSLEGKIVSIQHFFEKGNAVCQHDGDCNTTCSFGDAKSVVKAIRTFEDEWLADYKTTLEKIGTNVLFQLRRKFPYSKQKINWQQEITVGGGMKC", "modifications": "Alexa Fluor 555 maleimide label (residue not stated)", "notes": "T. vaginalis F-actin capping protein subunit α (TvFACPα), TVAG_470230, 267 amino acids; m6 after dye labelling; source: recombinant from pET28-His-TvFACPα, purified, labelled with Alexa Fluor 555 maleimide"}, "B3": {"name": "HA-TvFACPα (natural protein)", "chain": "B2 chain", "notes": "T. vaginalis F-actin capping protein subunit α (TvFACPα), TVAG_470230, 267 amino acids; source: transgenic T. vaginalis TH17 trophozoites (Flp-HA-TvFACPα plasmid), overexpressed, in lysate"}},
  "key": {"HA-TvFACPα(S2A)": {"biological_target": "T1, HA-TvFACPα(S2A) (Trichomonas vaginalis, UniProt A2FE30 1-261, S2A)", "T1 construct": "T. vaginalis F-actin capping protein subunit α (TvFACPα), TVAG_470230; source: transgenic T. vaginalis TH17 trophozoites (Flp-HA-TvFACPα(S2A) plasmid), overexpressed, in lysate", "T1 sequence": "B2 chain with S2A", "test": "co-IP; anti-HA agarose beads on lysates of TH17 trophozoites overexpressing HA-TvFACPα or its mutants (1% Triton X-100, 5 mM EDTA in TBS, 4°C overnight); Western blotting for α-actin and α-actinin; also after DMSO or TBB (CKII inhibitor) treatment", "settings": "partners not purified"}, "[1]": {"biological_target": "T2, tagless recombinant TvActin (rTvActin) (Trichomonas vaginalis, UniProt P90623 1-376)", "T2 construct": "T. vaginalis α-actin (TvActin), TVAG_337240; Monomeric (G-) in G-buffer, polymerised (F-) in F-buffer; the assay's format tells which; 10% pyrene-labelled in the pyrene assay and 10% Alexa Fluor 488-labelled in TIRF microscopy; also called G-rTvActin; F-rTvActin; source: E. coli BL21, GST-TvActin cleaved with thrombin, purified (heparin-Sepharose, Sephacryl S-300 gel filtration)", "test": "TIRF microscopy; 6 μM G-rTvActin (10% Alexa Fluor 488-labelled) polymerising in TIRF buffer on NEM-myosin II-coated flow cell with 300 nM His-TvFACPα; Alexa Fluor 555-His-TvFACPα seen at the barbed end", "settings": "both partners purified"}, "[2]": {"biological_target": "B1", "test": "co-sedimentation; actin fractionation of trophozoite lysates (Cytoskeleton Inc. kit): 100,000 × g for 1 h, F-actin and associated proteins in the pellet; Western blotting; nontransgenic and transgenic TH17, flagellate and amoeboid forms, DMSO or TBB, T1 isolate", "settings": "partners not purified"}},
  "note": "Changes are numbered by the printed parent chain.",
  "data": [
    {"binder": "B1", "values": [
      {"measurement": "fold change of coimmunoprecipitated α-actin signal against HA-TvFACPα", "setting": "HA-TvFACPα(S2A)", "result": 3, "unit": "fold"}
    ]},
    {"binder": "B2", "values": [
      {"measurement": "binding result", "setting": "[1]", "result": "binds"}
    ]},
    {"binder": "B3", "values": [
      {"measurement": "fold change of cosedimented level against endogenous TvFACPα in the nontransfectant", "setting": "[2]", "result": "~2", "unit": "fold"}
    ]}
  ]
}
